According to patent US8058228B2, “Leptin peptide antagonists” (Boston Biomedical Research Institute, priority 2004, dated 2011):

Biological target: T1, OB-R (Homo sapiens, UniProt P48357)
T1 construct: After confirming via Western that the primary EEC and ESC and endometrial cell lines utilized herein had OB-R; endogenous in cells; host or cells: primary human EEC and ESC; Ishikawa (ECACC 9832301) and HES cell lines
T1 sequence (P48357 22-1165): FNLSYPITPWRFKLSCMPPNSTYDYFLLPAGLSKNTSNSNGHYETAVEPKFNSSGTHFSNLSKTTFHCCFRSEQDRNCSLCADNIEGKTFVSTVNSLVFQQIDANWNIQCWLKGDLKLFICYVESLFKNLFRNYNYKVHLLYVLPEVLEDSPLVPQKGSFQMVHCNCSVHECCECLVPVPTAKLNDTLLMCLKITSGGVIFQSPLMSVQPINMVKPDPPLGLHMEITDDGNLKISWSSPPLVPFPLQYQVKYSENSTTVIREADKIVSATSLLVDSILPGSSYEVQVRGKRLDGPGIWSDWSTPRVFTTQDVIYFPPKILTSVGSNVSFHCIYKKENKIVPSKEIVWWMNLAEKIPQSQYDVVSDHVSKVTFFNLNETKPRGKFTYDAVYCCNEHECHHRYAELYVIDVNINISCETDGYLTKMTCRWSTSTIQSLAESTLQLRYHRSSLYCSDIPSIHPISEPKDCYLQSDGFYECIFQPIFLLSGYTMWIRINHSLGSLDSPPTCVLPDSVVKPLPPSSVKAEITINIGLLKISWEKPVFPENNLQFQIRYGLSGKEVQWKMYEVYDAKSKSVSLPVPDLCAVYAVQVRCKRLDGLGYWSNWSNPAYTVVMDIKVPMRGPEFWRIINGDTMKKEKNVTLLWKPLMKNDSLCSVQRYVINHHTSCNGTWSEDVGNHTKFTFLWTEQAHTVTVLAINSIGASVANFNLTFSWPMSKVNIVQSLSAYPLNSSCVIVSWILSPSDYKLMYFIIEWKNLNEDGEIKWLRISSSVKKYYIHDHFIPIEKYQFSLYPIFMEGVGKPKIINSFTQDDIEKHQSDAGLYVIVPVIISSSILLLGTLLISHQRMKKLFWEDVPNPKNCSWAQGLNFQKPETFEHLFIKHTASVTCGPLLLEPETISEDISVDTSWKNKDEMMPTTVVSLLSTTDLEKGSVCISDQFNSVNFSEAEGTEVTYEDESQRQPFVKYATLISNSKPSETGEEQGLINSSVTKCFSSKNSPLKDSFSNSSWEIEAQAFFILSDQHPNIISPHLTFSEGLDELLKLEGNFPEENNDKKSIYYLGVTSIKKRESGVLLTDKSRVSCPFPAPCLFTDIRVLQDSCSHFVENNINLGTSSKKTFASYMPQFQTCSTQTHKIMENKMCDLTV
Test: p-STAT3 levels in human endometrial cells (Western blot)
Type: cell-based
Details: for effect on leptin-induced increase of p-STAT3 levels: peptide 300 nM
Procedure: Primary human endometrial cells (ESC and EEC) were cultured for 5-9 days in DMEM-F12 medium containing 5% fetal bovine serum (FBS), 5 μg/ml insulin, 1% amphopthericin B, 100 μg/ml streptomycin and 100 U/ml penicillin until they were 80% confluent. Two types of endometrial epithelial cell lines, HES (originally derived from a benign proliferative endometrium) and Ishikawa (human endometrial epithelial adenocarcinoma, ECACC 9832301, Wiltshire, England) were cultured under the same conditions described above. The cells were washed twice with 100 mM phosphate saline buffer (PBS), pH 7.2 and cultured for additional 2 days in the same medium but without FBS (basal medium). Cells were washed as described before and cultured in basal medium containing leptin (0, 3, 10 or 62 nM) or IL-1β (0.6, 3 and 10 nM).
The anti-OB-R antibody (10 and 20 μg/ml) and LPA-2, a specific inhibitor of OB-R (3, 120, 300 nM or 30 μM) were used to assess whether leptin-induced effects were regulated primarily by the OB-R. Non-specific species-matched IgGs to the OB-R antibody and a scrambled version of LPA-2 (LPA-2Sc) served as negative controls (Gonzalez and Leavis, Endocrine 21: 185-195 (2003)). Inhibitors of IL-1R were used (monoclonal antibody anti-IL-1R tl and IL-1Ra) to assess whether leptin activated IL-1 induced signaling pathways or just activated similar components responsible for LIF/LIF-R expression. Treatment with the cytokine, inhibitor or the two combined was implemented for 5, 15, 30 and 60 min, and 24 and 48 h. The cells were prepared for Western blot analysis. The conditioned media was collected, lyophilized and stored at −80° C. until analysis for LIF, IL-1β and IL-1Ra by ELISA could be performed. Duplicate wells were run for each treatment and the experiments repeated at least three times with different cell preparations.
Endometrial cells were washed with ice-cold PBS and lysed by homogenization on ice with lysis buffer A [[…] Tris, pH 7.4, containing 137 nM NaCl, 2 mM EDTA, 10% glycerol, 50 mM β-glycerophosphate, 1% Nonidet P-40 and a mixture of proteases and phosphatase inhibitors composed of 100 μM antipain, 0.1 mg/ml trypsin inhibitor, protease inhibitor cocktail 1:50 (Sigma), 50 nM NaF, 2 mM phenyl-methylsulfonyl fluoride, and 2 mM sodium orthovanadate]. Cellular lysates were centrifuged at 2400 g at 4° C. for 10 min. For nuclear lysates the cells were scraped from the culture plates and homogenized with lysis buffer B (10 nM Tris, pH 7.4, 0.25 M sucrose, 0.1 mM EDTA containing the same mixture of protease and phosphatase inhibitors as buffer A). Protein concentrations were determined using the Bradford protein assay (BioRad Laboratories Inc., Hercules, Calif.).
30 μg of protein from nuclear or cellular lysates were incubated in ependorf tubes containing 0.5 μg of primary antibodies (anti-LIF-R, OB-R, STAT3 and p-STAT3 diluted in buffer A) for 2 h at 4° C. under constant stirring. The immuno-complexes were incubated with 20 μl of Protein G-Agarose (Amersham Pharmacia Biotech) diluted 1:1 with buffer A for a 2 additional hours under constant stirring. The beads were centrifuged for 1 min at 1000 g and washed with buffer A containing 0.5 M NaCl followed by a final wash with buffer A.
Cellular lysates and their immunoprecipitates containing 10-30 μg of protein plus Laemmli buffer (1:1) were incubated at 95° C. for 5 min. […]

Row | effect on leptin-induced increase of p-STAT3 levels (Ishikawa cells, leptin 62 nM) | p-STAT3 levels over non-treated controls after leptin (Ishikawa cells, leptin 62 nM) | p-STAT3 levels after leptin (primary EEC, leptin 10 and 62 nM, 5 min, nuclear extracts) | p-STAT3 level compared to non-treated control cells (Ishikawa cells, LPA-2 treatment) | Substance
1 | had no effect | – | – | – | VAEVLNRSDLIQRISFSLDLNNSKLH [LPA-2Sc, scrambled version of LPA-2, negative control, reference compound]
2 | – | increased the levels of p-STAT3 | increase in the levels of p-STAT3 | – | leptin: human recombinant leptin (R&D Systems), OB-R ligand used as stimulus
3 | inhibited the leptin-induced increase | – | – | decrease level of p-STAT3 | SRNVIQISNDLENLRDLLHVLAFSKS [LPA-2, 26 amino acid peptide, residues 70-95 of helix III of the human leptin molecule; leptin peptide antagonist]
